Reference: US20240400670A1 (JIANGSU HENGRUI PHARMACEUTICALS, published 2024)

Experiments:
[1] = molecular target: T1, human APRIL (R&D Systems, 5860-AP-010/CF) (human, UniProt O75888 105-250, limits assumed); assay: cell-based or functional assay
T1 sequence (looked up): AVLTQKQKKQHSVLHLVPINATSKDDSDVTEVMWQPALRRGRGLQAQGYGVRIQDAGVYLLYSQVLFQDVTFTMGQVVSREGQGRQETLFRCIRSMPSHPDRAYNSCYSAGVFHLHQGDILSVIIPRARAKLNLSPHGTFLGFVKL

[2] = molecular target: BAFF (R&D Systems, 7537-BF); assay: cell-based or functional assay
[3] = molecular target: T2, human BAFF (ACROBiosystems, BAF-H52D4) (human, UniProt Q9Y275 134-285); assay: ELISA, sample coated, BAFF titrated, anti-His-HRP
T2 construct: detected with anti-His-HRP
Procedure: (§1) The specific procedures are as follows:
(§2) The test sample was diluted to 2 μg/mL with a PBS (BasalMedia, B320) buffer at pH 7.4 and added to a 96-well microplate (Coming, 3590) at 100 μL/well. The plate was incubated at 4° C. overnight. After the liquid was discarded, 5 % skim milk (BD, 232100) diluted with PBS was added at 300 μL/well for blocking, and the mixture was incubated at 37° C. for 2 h. After the blocking was completed, the blocking solution was discarded, and the plate was washed 3 times with a PBST buffer (pH 7.4, PBS containing 0.1 % tween-20). […] After the incubation, the plate was washed 3 times with PBST. […] After the plate was washed 3 times with PBST, a TMB chromogenic substrate (KPL, 5120-0077) was added at 100 μL/well, and the mixture was incubated at room temperature for 10⁻¹⁵ min, and then 1 M H₂SO₄ was added at 50 μL/well to terminate the reaction. The absorbance values at 450 nm were taken using a microplate reader. The binding curves of antibodies to antigens were fitted using software, and the EC₅₀ values were calculated.

[4] = molecular target: T3, human BAFF (Sino Biological, 10056-HNCH) (human, UniProt Q9Y275 134-285); assay: SPR (Biacore), Protein A capture of sample, 1:1 model
T3 construct: also called BAFF protein
Procedure: (§3) A certain amount of test sample was subjected to affinity capture by a biosensor chip Protein A (GE, 29127556), and then antigens at a series of concentration gradients were allowed to flow on the surface of the chip. The reaction signals were detected in real time by using Biacore (GE, 8 K) to obtain association and dissociation curves. After the dissociation was completed for each cycle, the biochip was washed and regenerated with a 10 mM glycine-hydrochloric acid solution at pH 1.5 (GE, BR-1003-54). Fitting was performed based on the experimental data using BlAevaluation version 4.1 software with a 1:1 model, and affinity values were obtained.

[5] = molecular target: cynomolgus monkey BAFF (Kactus, BAF-CM412) (cynomolgus monkey, UniProt A0A2K5V2X4 134-285); assay: as above
Procedure: as §3

[6] = molecular target: mouse BAFF (Acro Biosystems, BAF-M521y) (mouse, UniProt Q9WU72 127-309, limits assumed); assay: as above
Procedure: as §3

[7] = molecular target: T1, human APRIL (R&D Systems, …); assay: as above
Procedure: as §3

[8] = molecular target: T3, human BAFF (Sino Biological, 10056-HNCH); assay: competition ELISA, blocks BAFF/BCMA; BCMA coated, biotin-BAFF
Procedure: as §1
(§4) The receptor protein was diluted to 2 μg/mL with a PBS (BasalMedia, B320) buffer at pH 7.4 and added to a 96-well microplate (Corning, 3590) at 100 μL/well. The plate was incubated at 4° C. overnight. After the liquid was discarded, 1 % Casein blocking solution (Thermo, 37528) was added at 200 μL/well for blocking, and the plate was incubated at 37° C. for 2 h. After the blocking was complete, the blocking solution was discarded, and the plate was washed 3 times with a PBST buffer (pH 7.4 PBS containing 0.1 % tween-20) for later use. After the biotin-labeled ligand protein at a fixed concentration was mixed with an antibody or fusion protein diluted in a gradient, the mixture was pre-incubated at 37° C. for 30 min and then added to the blocked microplate. The plate was incubated at 37° C. for 1.5 h. After the incubation was complete, the plate was washed 3 times with PBST. Streptavidin-HRP (Invitrogen, 434323, diluted at 1:4000) was added at 100 μL/well, and the plate was incubated at 37° C. for 1 h. The supernatant was removed. […] The absorbance values at 450 nm were taken using a microplate reader. Curves for the inhibition of binding of the ligands to the receptors were fitted using software, and the IC₅₀ values were calculated.

[9] = molecular target: T3, human BAFF (Sino Biological, 10056-HNCH); assay: competition ELISA, blocks BAFF/TACI; TACI coated, biotin-BAFF
Procedure: as §1, §4

[10] = molecular target: T1, human APRIL (R&D Systems, …); assay: competition ELISA, blocks APRIL/BCMA; BCMA coated, biotin-APRIL
Procedure: as §1, §4

[11] = molecular target: T1, human APRIL (R&D Systems, …); assay: competition ELISA, blocks APRIL/TACI; TACI coated, biotin-APRIL
Procedure: as §1, §4

[12] = molecular target: T3, human BAFF (Sino Biological, 10056-HNCH); assay: competition ELISA, blocks BAFF/BAFF-R; BAFF-R coated, biotin-BAFF
Procedure: as §1, §4

[13] = molecular target: T4, human IL-23 (Sino Biological, CT048-H08H) (human, UniProt Q9NPF7 20-189; P29460 23-328); assay: cell-based or functional assay
T4 sequence (looked up) 1: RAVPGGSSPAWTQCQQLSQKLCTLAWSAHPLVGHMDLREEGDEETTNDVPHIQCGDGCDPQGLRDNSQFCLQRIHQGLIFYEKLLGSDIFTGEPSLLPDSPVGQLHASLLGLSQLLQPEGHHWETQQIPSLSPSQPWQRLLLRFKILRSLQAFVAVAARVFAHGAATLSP
T4 sequence (looked up) 2: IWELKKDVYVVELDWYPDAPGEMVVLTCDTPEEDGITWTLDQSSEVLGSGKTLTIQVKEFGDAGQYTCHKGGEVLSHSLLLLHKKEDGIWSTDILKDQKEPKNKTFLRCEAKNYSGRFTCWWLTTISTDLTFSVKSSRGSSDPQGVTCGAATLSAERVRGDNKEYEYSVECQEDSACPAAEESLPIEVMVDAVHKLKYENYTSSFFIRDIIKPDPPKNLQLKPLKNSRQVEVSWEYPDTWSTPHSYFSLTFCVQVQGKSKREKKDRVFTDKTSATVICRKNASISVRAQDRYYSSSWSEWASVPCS

[14] = molecular target: T5, IL-23 (R&D Systems, 1290-IL-010) (UniProt Q9NPF7 20-189; P29460 23-328); assay: cell-based or functional assay
T5 sequence (looked up) 1: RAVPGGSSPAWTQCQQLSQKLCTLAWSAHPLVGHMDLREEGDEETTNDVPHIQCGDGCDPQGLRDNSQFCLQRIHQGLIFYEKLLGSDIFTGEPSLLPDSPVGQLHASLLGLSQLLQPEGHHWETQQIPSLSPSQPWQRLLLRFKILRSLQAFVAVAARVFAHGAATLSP
T5 sequence (looked up) 2: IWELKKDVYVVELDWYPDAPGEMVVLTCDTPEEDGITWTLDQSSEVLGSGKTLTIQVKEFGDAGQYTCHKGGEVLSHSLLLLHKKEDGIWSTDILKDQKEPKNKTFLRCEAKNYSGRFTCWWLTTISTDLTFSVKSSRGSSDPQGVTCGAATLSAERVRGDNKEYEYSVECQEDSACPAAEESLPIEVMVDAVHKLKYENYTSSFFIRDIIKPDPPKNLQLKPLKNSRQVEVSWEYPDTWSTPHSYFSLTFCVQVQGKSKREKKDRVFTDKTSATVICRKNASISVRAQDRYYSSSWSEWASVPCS

[15] = molecular target: T6, mouse IL-23 (R&D Systems, 1887-ML/CF) (mouse, UniProt Q9EQ14 22-196; P43432 23-335); assay: SPR (Biacore), Protein A capture of sample
T6 construct: also called Mouse IL-23 p19
T6 sequence (looked up) 1: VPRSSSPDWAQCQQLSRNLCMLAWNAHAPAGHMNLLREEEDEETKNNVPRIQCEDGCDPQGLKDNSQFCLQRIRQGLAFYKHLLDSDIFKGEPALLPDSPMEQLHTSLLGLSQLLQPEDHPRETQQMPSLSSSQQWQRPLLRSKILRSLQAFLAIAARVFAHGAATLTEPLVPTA
T6 sequence (looked up) 2: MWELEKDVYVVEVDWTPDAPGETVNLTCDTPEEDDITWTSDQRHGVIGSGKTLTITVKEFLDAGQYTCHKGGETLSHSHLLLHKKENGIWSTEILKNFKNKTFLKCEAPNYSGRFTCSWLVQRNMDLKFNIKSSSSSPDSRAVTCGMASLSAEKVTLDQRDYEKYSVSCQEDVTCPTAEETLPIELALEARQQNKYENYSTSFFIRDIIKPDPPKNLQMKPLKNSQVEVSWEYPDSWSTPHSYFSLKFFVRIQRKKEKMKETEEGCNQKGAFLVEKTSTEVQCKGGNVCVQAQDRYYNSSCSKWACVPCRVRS

[16] = molecular target: T4, human IL-23 (Sino Biological, …); assay: ELISA, sample coated, IL-23 titrated, anti-His-HRP
Procedure: as §1, §2

[17] = molecular target: cynomolgus monkey IL-23 (Acro Biosystems, ILB-CM52W8) (cynomolgus monkey, UniProt H6WS56 20-189); assay: SPR (Biacore), Protein A capture of sample, 1:1 model
Procedure: as §3

[18] = molecular target: T4, human IL-23 (Sino Biological, …); assay: as above
Procedure: as §3

[19] = molecular target: T4, human IL-23 (Sino Biological, …); assay: competition ELISA, blocks IL-23/IL-23R; IL-23R coated, biotin-IL-23 + sample gradient
Procedure: as §1
The receptor protein was diluted to 2 μg/mL with a PBS (BasalMedia, B320) buffer at pH 7.4 and added to a 96-well microplate (Corning, 3590) at 100 μL/well. The plate was incubated at 4° C. overnight. After the liquid was discarded, 1 % Casein blocking solution (Thermo, 37528) was added at 200 μL/well for blocking, and the plate was incubated at 37° C. for 2 h. After the blocking was complete, the blocking solution was discarded, and the plate was washed 3 times with a PBST buffer (pH 7.4 PBS containing 0.1 % tween-20) for later use. After the biotin-labeled ligand protein at a fixed concentration was mixed with an antibody or fusion protein diluted in a gradient, the mixture was pre-incubated at 37° C. for 30 min and then added to the blocked microplate. The plate was incubated at 37° C. for 1.5 h. After the incubation was complete, the plate was washed 3 times with PBST. Streptavidin-HRP (Invitrogen, 434323, diluted at 1:4000) was added at 100 μL/well, and the plate was incubated at 37° C. for 1 h. The supernatant was removed. After the plate was washed 3 times with PBST, TMB chromogenic substrate (KPL, 5120-0077) was added at 100 μL/well, and the plate was incubated at room temperature for 10⁻¹⁵ min. 1 M H₂SO₄ was added at 50 μL/well to terminate the reaction. The absorbance values at 450 nm were taken using a microplate reader. Curves for the inhibition of binding of the ligands to the receptors were fitted using software, and the IC₅₀ values were calculated.

B1: RCT-18 (Fc fusion)
chain: SRVDQEERFPQGLWTGVAMRSCPEEQYWDPLLGTCMSCKTICNHQSQRTCAAFCRSLSCRKEQGKFYDHLLRDCISCASICGQHPKQCAYFCENKLRSPVNLPPELDKTHTCPPCPAPEAEGAPSVFLFPPKPKDTLMISRTPEVTCVVVDVSHEDPEVKFNWYVDGVEVHNAKTKPREEQYNSTYRVVSVLTVLHQDWLNGKEYKCKVSNKALPSSIEKTISKAKGQPREPQVYTLPPSRDELTKNQVSLTCLVKGFYPSDIAVEWESNGQPENNYKTTPPVLDSDGSFFLYSKLTVDKSRWQQGNVFSCSVMHEALHNHYTQKSLSLSPGK
notes: control TACI-Fc; also called telitacicept; RC18
[1]
  Activity in inhibiting proliferation of B cells (IC50, pM), APRIL: 1990 pM
[2]
  Activity in inhibiting proliferation of B cells (IC50, pM), BAFF: 70.1 pM
[3]
  EC50: 21.5 nM
[4]
  Kd: 0.186 nM
  koff: 0.00018 s⁻¹
  kon: 964000 M⁻¹ s⁻¹
[5]
  Kd: 0.258 nM
  koff: 9.54e-05 s⁻¹
  kon: 370000 M⁻¹ s⁻¹
[6]
  Kd: 0.121 nM
  koff: 8.98e-05 s⁻¹
  kon: 740000 M⁻¹ s⁻¹
[7]
  Kd: 0.0439 nM
  koff: 0.00753 s⁻¹
  kon: 1.72e+08 M⁻¹ s⁻¹
[8]
  IC50: 4.86 nM
[9]
  IC50: 6.07 nM
[10]
  IC50: 484 nM
[11]
  IC50: 64.9 nM
[12]
  IC50: 7.57 nM

B2: Hu29-19 (antibody, human IgG1, kappa, L234A L235A, V domains shown)
VH: QVTLKESGPVLVKPTETLTLTCTVSGFSLTNYAISWVRQPPGKGLEWLGVIWTGGGTNYNSGIKSRLTISKDNSKSQVVLTMTNMDPVDTARYYCVREGDYGSYAGAMDYWGQGTTVTVSS
VL: DIVLTQSPDSLAVSLGERATINCRASESVDYYGISSMHWFQQKPGQPPKLLIYRASNLESGIPARFSGSGSRTDFTLTISSLQAEDVAVYYCQQANKDPYTFGGGTKVEIKR
notes: humanized mAb29, IgG1/kappa
[13]
  Activity in inhibiting proliferation of BaF3-IL-23R cells (IC50, nM): 0.194 nM
[14]
  IC50 for inhibiting IL-17 secretion: 0.0177 nM
[15]
  binding result: no binding
[16]
  EC50: 1.11 nM
[17]
  Kd: 0.0708 nM
  koff: 0.000192 s⁻¹
  kon: 2.71e+06 M⁻¹ s⁻¹
[18]
  Kd: 0.0151 nM
  koff: 4.08e-05 s⁻¹
  kon: 2.71e+06 M⁻¹ s⁻¹
[19]
  IC50: 0.478 nM

B3: Hu29-24 (antibody, human IgG1, kappa, L234A L235A)
heavy: not shown
light: DIVLTQSPDSLAVSLGQRATINCRASESVDYYGISSMHWFQQKPGQPPKLLIYRASNLESGIPARFSGSGSRTDFTLTISSLQAEDVAVYYCQQANKDPYTFGGGTKVEIKRTVAAPSVFIFPPSDEQLKSGTASVVCLLNNFYPREAKVQWKVDNALQSGNSQESVTEQDSKDSTYSLSSTLTLSKADYEKHKVYACEVTHQGLSSPVTKSFNRGEC
notes: humanized mAb29, IgG1/kappa
[13]
  Activity in inhibiting proliferation of BaF3-IL-23R cells (IC50, nM): 0.178 nM
[14]
  IC50 for inhibiting IL-17 secretion: 0.0289 nM
[15]
  binding result: no binding
[16]
  EC50: 1.22 nM
[17]
  Kd: 0.0857 nM
[18]
  Kd: 0.0149 nM
[19]
  IC50: 0.488 nM
